In patent publication US20030105278A1 (MERK, published 2003):
Bridges are numbered along the chain shown (N, C = ends).

B1: MCH analog SEQ. ID. NO. 51 (position 10: Asn) (peptide)
peptide: Ac-RCMLNRVYRPC-NH2
modifications: disulfide 2-11 (inferred)
notes: ID; NO; 7 peptide; MCH position numbering
B2: MCH analog SEQ. ID. NO. 52 (position 10: Ser) (peptide)
peptide: Ac-RCMLSRVYRPC-NH2
modifications: disulfide 2-11 (inferred)
notes: as for B1
B3: MCH analog SEQ. ID. NO. 54 (position 10: Glu) (peptide)
peptide: Ac-RCMLERVYRPC-NH2
modifications: disulfide 2-11 (inferred)
notes: as for B1
B4: MCH analog SEQ. ID. NO. 53 (position 10: Lys) (peptide)
peptide: Ac-RCMLKRVYRPC-NH2
modifications: disulfide 2-11 (inferred)
notes: as for B1
B5: MCH analog SEQ. ID. NO. 47 (position 10: Ala) (peptide)
peptide: Ac-RCMLARVYRPC-NH2
modifications: disulfide 2-11 (inferred)
notes: as for B1
B6: MCH analog SEQ. ID. NO. 48 (position 10: Leu) (peptide)
peptide: Ac-RCMLLRVYRPC-NH2
modifications: disulfide 2-11 (inferred)
notes: as for B1
B7: MCH analog SEQ. ID. NO. 55 (position 10: D-Leu) (peptide)
peptide: RCMLXRVYRPC
modifications: D-Leu at position 10; N-terminal acetyl, C-terminal amide, Cys-Cys disulfide as in SEQ. ID. NO. 7
B8: MCH analog SEQ. ID. NO. 61 (position 10: γ-Abu) (peptide)
peptide: RCMLXRVYRPC
modifications: γ-Abu (gamma-aminobutyric acid) at position 10; N-terminal acetyl, C-terminal amide, Cys-Cys disulfide as in SEQ. ID. NO. 7
B9: MCH analog SEQ. ID. NO. 60 (position 10: β-Ala) (peptide)
peptide: RCMLXRVYRPC
modifications: β-Ala at position 10; N-terminal acetyl, C-terminal amide, Cys-Cys disulfide as in SEQ. ID. NO. 7
B10: MCH analog SEQ. ID. NO. 59 (position 10: D-Lys) (peptide)
peptide: RCMLXRVYRPC
modifications: D-Lys at position 10; N-terminal acetyl, C-terminal amide, Cys-Cys disulfide as in SEQ. ID. NO. 7
B11: MCH analog SEQ. ID. NO. 49 (position 10: Nle) (peptide)
peptide: RCMLXRVYRPC
modifications: norleucine at position 10; N-terminal acetyl, C-terminal amide, Cys-Cys disulfide as in SEQ. ID. NO. 7
B12: MCH analog SEQ. ID. NO. 56 (position 10: D-Nle) (peptide)
peptide: RCMLXRVYRPC
modifications: D-Nle at position 10; N-terminal acetyl, C-terminal amide, Cys-Cys disulfide as in SEQ. ID. NO. 7
B13: MCH analog SEQ. ID. NO. 32 (position 6: Ac-Nle) (peptide)
peptide: XCMLGRVYRPC
modifications: Ac-Nle (acetyl-norleucine) at position 6; C-terminal amide, Cys-Cys disulfide as in SEQ. ID. NO. 7
B14: MCH analog SEQ. ID. NO. 44 (position 6: Ac-D-Asn) (peptide)
peptide: XCMLGRVYRPC
modifications: Ac-D-Asn at position 6; C-terminal amide, Cys-Cys disulfide as in SEQ. ID. NO. 7
B15: MCH analog SEQ. ID. NO. 46 (position 6: Ac-D-Glu) (peptide)
peptide: XCMLGRVYRPC
modifications: Ac-D-Glu at position 6; C-terminal amide, Cys-Cys disulfide as in SEQ. ID. NO. 7
B16: MCH analog SEQ. ID. NO. 43 (position 6: Ac-D-Pro) (peptide)
peptide: XCMLGRVYRPC
modifications: Ac-D-Pro at position 6; C-terminal amide, Cys-Cys disulfide as in SEQ. ID. NO. 7
B17: MCH analog SEQ. ID. NO. 16 (D-Cys^7) (peptide)
peptide: RXMLGRVYRPC
modifications: D-Cys^7; N-terminal acetyl, C-terminal amide, Cys-Cys disulfide as in SEQ. ID. NO. 7
B18: MCH analog SEQ. ID. NO. 24 (D-Cys^16) (peptide)
peptide: RCMLGRVYRPX
modifications: D-Cys^16; N-terminal acetyl, C-terminal amide, Cys-Cys disulfide as in SEQ. ID. NO. 7
B19: MCH analog SEQ. ID. NO. 28 (N-Me-Arg^11) (peptide)
peptide: RCMLGXVYRPC
modifications: N-methyl-arginine at position 11; N-terminal acetyl, C-terminal amide, Cys-Cys disulfide as in SEQ. ID. NO. 7
B20: MCH analog SEQ. ID. NO. 30 (Sar^15) (peptide)
peptide: RCMLGRVYRXC
modifications: sarcosine at position 15; N-terminal acetyl, C-terminal amide, Cys-Cys disulfide as in SEQ. ID. NO. 7
B21: MCH analog SEQ. ID. NO. 29 (N-Me-Arg^14) (peptide)
peptide: RCMLGRVYXPC
modifications: N-methyl-arginine at position 14; N-terminal acetyl, C-terminal amide, Cys-Cys disulfide as in SEQ. ID. NO. 7

molecular target: T1, human MCH receptor expressed from the open reading frame cDNA SEQ. ID. NO. 1 in 293-AEQ17 cells (human, UniProt Q99705 1-353); experiment: cell-based or functional assay
T1 sequence (Q99705 whole entry): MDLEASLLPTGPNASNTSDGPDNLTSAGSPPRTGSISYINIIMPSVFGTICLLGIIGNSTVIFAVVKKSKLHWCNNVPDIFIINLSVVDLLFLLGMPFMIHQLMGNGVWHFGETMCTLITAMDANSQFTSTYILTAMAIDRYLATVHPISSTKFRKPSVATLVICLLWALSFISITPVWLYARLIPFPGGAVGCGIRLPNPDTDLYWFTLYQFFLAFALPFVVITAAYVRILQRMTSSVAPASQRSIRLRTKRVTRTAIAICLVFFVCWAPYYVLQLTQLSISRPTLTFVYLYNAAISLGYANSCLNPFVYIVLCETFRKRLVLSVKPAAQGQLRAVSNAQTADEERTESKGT

Row | Activation % [%] | EC50 [nM] | Binder
1 | 106 | 23 | B1
2 | 104 | 65 | B2
3 | 12 | > 10000 | B3
4 | 25 | 4500 | B4
5 | 104 | 31 | B5
6 | 106 | 23 | B6
7 | 23 | – | B7
8 | 101 | – | B8
9 | 3.2 | > 1000 | B9
10 | – | > 10000 | B10
11 | 106 | – | B11
12 | 33 | – | B12

molecular target: T1, human MCH receptor expressed from the …; experiment: cell-based or functional assay; remark: another data set of the same source

Row | % Activation at 10 µM [%] | Binder
13 | 65.9 | DFDXLRCXLGRVYRPCWQV (norleucine (Nle) at positions 4 and 8; cyclization (S-S) between the two Cys)

molecular target: T1, human MCH receptor expressed from the …; experiment: cell-based or functional assay; remark: another data set of the same source

Row | Activation % [%] | Binder
14 | 107 | B13
15 | 94 | B14
16 | 85 | B15
17 | 96 | B16

molecular target: T1, human MCH receptor expressed from the …; experiment: cell-based or functional assay; remark: another data set of the same source

Row | Activation % [%] | Binder
18 | 34 | B17
19 | 76 | B18

molecular target: T2, human MCH receptor (membranes from a stable CHO or HEK-293 cell line) (human, UniProt Q99705 1-353); experiment: competition vs [125I]-human MCH (Phe13,Tyr19); human MCH receptor cell membranes (Example 3)
T2 construct: whole, on cells; also called cloned human MCH receptor (CHO clone)
T2 sequence (Q99705 whole entry): as above

Row | IC50 [nM] | Binder
20 | 0.23 | B1
21 | 0.32 | B2
22 | 190 | B3
23 | 110 | B4
24 | 0.59 | B5
25 | 0.06 | B6

molecular target: T1, human MCH receptor expressed from the …; experiment: cell-based or functional assay; remark: another data set of the same source

Row | Activation % [%] | EC50 [nM] | Binder
26 | 110 | – | B19
27 | 113 | 25 | B20
28 | – | > 1000 | B21
